IntAct's records for PubMed 22927393

B1: Epsin-1 (Saccharomyces cerevisiae), Q12518 (parent)
chain: MSKQFVRSAKNLVKGYSSTQVLVRNATSNDNHQVSKDSLIELAEKSYDSADFFEIMDMLDKRLNDKGKYWRHIAKALTVIDYLIRFGSENCVLWCRENLYIIKTLKEFRHEDDEGIDQGQIVRVKAKELTALLSDDERLNEERNMNIKGRNRKGRRRRGTGRSDENDDDLQRAISASRLTAEEDERRRKQDEDYETALQLSKEEEELKRLQDLQRMQQQQGQQQLQQPMYYDIFGNPITPEEYAQFQLQQQQQQQQQQLQQQPMYYDVFGNPITPEELAQFQQQQQLQEQQYLASMQQQQQAMSNNPFAKSEQSSSSPKRNQLVAASSPQQLQQQKQQEPLIQNRTGNQSMTDKYSKLNELLATGTGIDTFGNVGEARIPAQHTKTGTFINSQGTGYRQVSDDPNHNPFLNSQYTGLPSTSVVPTQTGYGFGNQSQQQSQNNGSNNRGYTLIDL
partner: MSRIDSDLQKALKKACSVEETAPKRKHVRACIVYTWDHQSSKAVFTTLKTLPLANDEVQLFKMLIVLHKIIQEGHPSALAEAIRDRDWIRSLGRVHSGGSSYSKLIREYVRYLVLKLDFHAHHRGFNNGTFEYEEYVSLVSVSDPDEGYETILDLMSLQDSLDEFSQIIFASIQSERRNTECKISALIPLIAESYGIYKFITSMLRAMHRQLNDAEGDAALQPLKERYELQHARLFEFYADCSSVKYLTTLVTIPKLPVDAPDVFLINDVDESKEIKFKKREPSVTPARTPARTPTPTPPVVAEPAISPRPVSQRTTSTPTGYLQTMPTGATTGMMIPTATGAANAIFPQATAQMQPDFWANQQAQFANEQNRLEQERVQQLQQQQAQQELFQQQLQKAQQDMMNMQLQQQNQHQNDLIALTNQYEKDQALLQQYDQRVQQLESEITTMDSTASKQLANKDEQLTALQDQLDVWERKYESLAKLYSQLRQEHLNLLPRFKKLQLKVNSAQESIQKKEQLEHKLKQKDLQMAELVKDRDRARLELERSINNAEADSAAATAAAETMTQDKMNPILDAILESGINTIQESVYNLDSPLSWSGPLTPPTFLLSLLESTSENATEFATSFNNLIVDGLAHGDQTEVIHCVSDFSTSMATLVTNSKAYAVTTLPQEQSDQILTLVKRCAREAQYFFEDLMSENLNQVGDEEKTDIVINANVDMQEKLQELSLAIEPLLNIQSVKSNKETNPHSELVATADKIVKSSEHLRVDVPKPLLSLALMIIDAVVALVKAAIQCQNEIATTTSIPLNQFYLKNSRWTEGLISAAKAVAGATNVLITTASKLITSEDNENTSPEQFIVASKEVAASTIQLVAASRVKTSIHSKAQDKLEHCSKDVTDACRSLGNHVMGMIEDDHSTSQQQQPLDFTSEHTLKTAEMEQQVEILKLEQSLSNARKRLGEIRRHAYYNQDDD

Variants of: B1
Settings: with sla2_yeast SLA2, P33338

Row | Variant | effect of a mutation on the interaction
1 | T104A | disrupting interaction strength
